Data: PMC4939424, “Phosphatidylinositol 3-Kinase-Associated Protein (PI3KAP)/XB130 Crosslinks Actin Filaments through Its Actin Binding and Multimerization Properties In Vitro and Enhances Endocytosis in HEK293 Cells” (Frontiers in Endocrinology, 2016)

Molecular target: the molecule itself
Test: native gel or EMSA; blue native (BN)-PAGE of immuno-purified FLAG-PI3KAP/XB130 on NativePAGE Novex Bis-Tris gels, immunoblot with anti-FLAG antibody

B1: FLAG-tagged recombinant full-length PI3KAP/XB130 (natural protein, mouse, UniProt Q5DTU0-2 1-843, looked up)
chain: MERYKAQGCCCLVVQRRILQVSASLEQLLTELDDFLKVLDQENLSSAAVLKKSGLSELLRLYTKSSSSDEEYIYMNKVSVNGEQNSASPDKVPEEQGPLTNGEPSQHSSAPQKSLPDLPPPKMIPERKQPTVPKIESPEGYYEEAEPFDRSINEDGEAVSSSYESYDEDENSKGKAAPYQWPSPEASIELMRDARICAFLWRKKWLGQWAKQLCVIRDTRLLCYKSSKDHSPQLDVNLRGSSVVHKEKQVRKKGHKLKITPMNADVIVLGLQSKDQAEQWLRVIQEVSGLPSEGASEGNQYTPDAQRLNCQKPDIAEKYLSAAEYGITINGHPEIPETKDVKKKCSAGLKLSNLMNLGRKKSTSLEPPERSLETSSYLNVLVNSQWKSRWCFVRDSHLHFYQDRNRSKVAQQPLSLVGCDVLPDPSPDHLYSFRILHNGEELAKLEAKSSEEMGHWLGLLLSESGSKTDPEELTYDYVDAERVSCIVSAAKTSLLLMQRKFSEPNTYIDGLPSRDCQDDLYDDVEVSELIAVVEPAEEAAPAVDANSGSEPDRVYLDLTPVKSFLHSSSEAQAQASLPAVPHQDDVAETLTVDPKPGTTPEEPHTESPGDPEVQQRQPEVQESSEPIEPTPRITMVKLQAEQQRISFPANCPDTMASAPIAASPPVKEKLRVTSAEIKLGKNRTEAEVKRYTEEKERLERSKEEIRGHLAQLRREKRELKETLLRCTDKGVLAKLEQTLKKIDEECRMEESRRVDLELSIMEVKDNLKKAEAGPVTLGTTVDTTHLDNMSPRPQPKAATPNPPPDSTPVNSASVLKNRPLSVMVTGKGTVLQKAKEWEKKGAS
notes: also called FLAG-PI3KAP/XB130; FLAG-PI3KAPXB130; source: HEK293T, transfected (pShuttle2): purified with anti-FLAG M2 agarose and eluted with FLAG peptide; also in lysate (co-immunoprecipitation)
binding result: binds
